Test: yeast display, Sf9 membrane polyspecificity reagent, FACS + sequencing; frameworks hold sequencing errors
Method in brief: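 In a synthetic yeast display library (Saccharomyces cerevisiae BJ5465), nanobody expression was induced with galactose for 36–48 hours. FACS gates were set low and high (top ~1%) using anti-HA fluorescence for expression and streptavidin fluorescence for binding of the Sf9 membrane reagent. Each polyreactivity label is drawn from the gate of origin.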

| Sequence | polyreactivity (PSR sort gate) |
| --- | --- |
| QVQLVESGGGLVQAGGSLRLSCAASGRTFQYYAMGWYRQAPGKERELVATISYSGGSTSYADSVKGRFTISRDNAKNTVYLQMNSLKPEDTAVYYCAADYYYGDALSPYYPHWDFYYWGQGTQVTVSS | low polyreactivity |
| QVQLVESGGGLVQAGGSLRLSCAASGSILGTYAMGWYRQAPGKERELVAAISSSGRTSYADSVKGRFTISRDNAKNTVYLQMNSLKPEDTAVYYCNASNYIFLINDPDAAPWLYDYWGQGTQVTVSS | low polyreactivity |
| QVQLVESGGGLVQAGGSLRLSCAASGRIFHFIAMGWYRQAPGKERELVATITKRGGRTYYADSVKGRFTISRDNAKNTVYLQMNSLKPEDTAVYYCNADQSRYSAVSGYDYWGQGTQVTVSS | high polyreactivity |
| QVQLVESGGGLVQPGGSLRLSCAASGIISFYNAMGWYRPAPGKERELVAAITWSVGSTYYADSVKGRFTISRDNAKNTVYLQMNSLKPEDTAVYYCNVSPGFWRSIPLYYNLRYGYWGQGTQVTVSS | low polyreactivity |
| HVQLVESGGGLVQAGGSLRLSCAASGSTFTYYAMGWYRQAPGKERELVAAITGSDGRTYYADSVKGRFTISRDNAKKTVYLEMNSLKPEDTAVYYCATDVPIREIDEFGYWGQGTQVTVSS | low polyreactivity |
| QVQLLESGGGLVQAGGSLRLSCAASGFTFAWYAMGWYRQAPGKERELVAAISSRGSRTRYADSVKGRFTISRDNAKNTVYLQLNSLKPEDTAFYYCAKGSGARVVQVDRSGDYWGQGTQVTVSS | high polyreactivity |
| QVQLVESGGGLVQAGGSLRLSCAASGITFYFYAMGCERQAPGKERELVAAINRSGSSTYYADSVKGRFTISRDNAKTSVYLQMNSLNPEDTAVYYFAAGWYPWAYEDWGQGTQVTVTS | high polyreactivity |
| QVQLVESGGGLVQAGGSLRLSCAASGRIFAYYTMGWYRQAPGKERELVASITSGSSTNYADSVKGLFTISRDNAKNTVYLQMNSLKPEDTAVYYCAAPRGSYVRTRYRGYVVQSNYWGQGTQVTVSS | high polyreactivity |
| QVQLVESGGGLVQAGGSLRLSCAASGSTFARYAMGWYRQAPGKERELVAAITWRGGSTYYADSVKGRFTISRDNAKNTVYLQMNSLKPEDTAVYYCAADFSRRYGYWGQGTQVTVSS | high polyreactivity |
| QVQLVESGGGLVQAGGSLRLSCAASGRIFGVYAMGCYRQAPGKDRELVAAISSTGGSTYYADSVKGRFTISRDNAKNTVYLQMNSMKPEDTAVYYCEYDYWGQGTQVTVSS | low polyreactivity |
| QVQLVESGGGLVQAGGSLRLSCAASGSTFGSNAMGWYRQAPGKESELVAAIRWSGGSTYYADSVKGRFTISRDNAKNTVYLQMNSLKPEDTAVYYCNAVYGRQYRGYNYKYYYWGQGTQVTVSS | high polyreactivity |
| QVQLVESGGGLVQAGGSLRLSCAASGGTFARYAMGWYRQAPGKERELVAAITRSGGTTYYADSVKGRFTISRDNAKNTVYLQMNSLKPEDTAVYYCAALPIVDYYGYGYWGQGTQVTVSS | high polyreactivity |
| QVQLVESGGGLVQAGGGLRLSCAASGRTFYIYAMGWYRQAPGKERELVAAISWRGGSTYYADSVKGRFTISRDNAKNTGYLQMNSLKPEDTAVYYCAKVYARTVGWFNYWGQGTQVTVSS | high polyreactivity |
| QVQLVESGGGLVQAGGSLRLSCAASGITFRVNTMGWYRKAPGKETEFVATISYSGDSTYYADSVKGRFTISRDNAKNTVYLQMNSLKPEDTAVYYCATELVFYGRDYWGQGTQVTVSS | low polyreactivity |
| QVQLVESGGGLVQAGGSLRLSCAASGRIFYRYAMGWYRQAPGKERELVAVISGGGTYYADSVKGRFTISRDNAKNTVYLQMNSLKPEDTAVYYCAADDGVSLVSPYYGGYDYWGQGTQVTVSS | low polyreactivity |
| QVQLVESGGGLVQAGGSLRLSCAASGSTFPGYAMGWYRQAPGKERELVAAISKRGGSTRYADSVKGRFTISRDNAKNTVYLQMNSLKPEDTAVYYCNNRSQISHYRRHDYWGQGTQVTVSS | high polyreactivity |
| HVQQQESGGGLEQAGGSLRLSCAASGNISYSRNMGWYRQAPGKERELVAAIDRGAITYYADSVKGRFTISRDNAKNTVYLQIYSLKPEDTAVYYCAAVYHDRWDHRYWGQGTQVTVSR | high polyreactivity |
| QVQLVESGGGLVQAGGSLRLSCAASGRIFYFYAMGWYRQAPGKERELVASISYSGGNTYYADSVKGRFTISRDNAKNTVYLQMNSLKPEDNAVYYCNVLPNTGARGYYYWGQGTQVTVSS | low polyreactivity |
| QVQLVESWGGFVQAGGSLRLSCAASGSIFKGYVMGWYRQAPGKERELVAAISGSGGSTYYADSVKGRFTISRDNAKNTVYIQMNSLKPEDTAVYYCAARYRYWGGSGFKGFDYWGQGTQVTVSS | high polyreactivity |
| QVQLVESGGGLVQEGGSLRLSWAASGSTFARYAMGWYRQAPGKERELVAAISRRGGSTYYADSVKGRFTISRDKAKNTVYVQMHRLKPEDTGVSYCAARYGIISSFEYDYWGQGTQVTVSS | high polyreactivity |
| QVQLVDSGGGLVQAGGILRLSCAASGFIFKKNAMGWYRQAHGKEREFVAAITSSGGSTYYADSVKGRFTISRDNAKNTVYLQMNSLKPEDTAVYFCARGTSWWRSRSITFTYDYWGQGTQVTVSS | high polyreactivity |
| QVQLVESGGGLVQAGGSLRLSCAASGSTIEDYAMGWYRQAPGKERELVAAITSGDSTNYADSVKGRFTISRDNAKNTVYLQMISLKPEDTAVYYCFDLSNRYAVRYDYWGQGTQVTVSS | high polyreactivity |

| Sequence | polyreactivity (PSR sort gate) |
| --- | --- |
| QVQLVESGGGLVQAGGSILLSCAASGSIYGTNTMGWYRQAPGKEREFVAVITGSTTSTYYADSVKGLFTISRDNAKNTVYLQMNSLKPEDTAVYYCATDYWWDLFEYDYWGQGTQVTVSS | high polyreactivity |
| QVQLVESGGGLVQAGGSLRLSCAASGRTFAYYAMGWYRQAPGKERELVAAIDSSGGSTYYADSVKGRFTISRDNAKNTVYLQMNSLKPEDTAVYYCAASYPYDRYDQGGYGYWGQGTQVTVSS | low polyreactivity |
| QVQLVESGGGLVQAGGSLRLSCAASGNIFYKNNMGWYRQAPGKERELVAAISFSGGGTYYADSVKGRFTISRDNAKNTVYLQMNSLKPEDTAVYYCAAEYTYGWTYRPFDYWGQGTQVTVSS | high polyreactivity |
| QDKLVESAGGLVQAGGSLRLSCADSGSIFPFNAMALNRQATGKVREMVASITSGGTTYYADSLKGRFTISRDNAKNTVYLQMNSLKPEDTAVYYFAGDWVWRVLNSYGVRYDYWGQGTQVTVSS | low polyreactivity |
| QVQHVESGGGLVQAGRSLRLICAASGSIFDGNAMGWYRQAPGKERELVAAINWPGTRTYYADSVKGRFTISRDNAKNTVYLQMNSLKPEETAVYNCNKKWYPYLEHDYWGLGTQVTVSS | high polyreactivity |
| QVHLVESGGGLVQAGGRLRLSCAASGFTIGHYAMAWYRQAPGKERELVAAISSGDRTYYADSVKGRFTISRDNAKNTVYLQMNCLKPEDTAVYFCNGVYYSWAQSARFDYWGQGTQVTVSS | low polyreactivity |
| QVQLVESGGGLVQAGGSLRLSCAASGRIFNRYVMGWYRQAPGKERELVAAISVRGASTYYADSVKGRFTISRDNAKNTVYLQMNSLKPEDTAVYYCATAGYRLLDYWGEGTQVTVSS | high polyreactivity |
| QVQLVESGGGLVQAGGSLRLSCAASGFTFVTYAMGWSSQAPGKERELVATISWGVGGSYYADSVKGRFTISRDNAKNTVYLPMNSLKPEDTAVYYCNARHTWHQTYDYWGQGTQVTVSS | low polyreactivity |
| QVQLVESGGGLVQAGGSLRLSCAASGIIFWAYAMGWYRQAPGKERELVAAISWSGGRTYYADSVKGRFTISRDNAKNTVYLQMNSLKPEDTAVYYCAAYRFLLYDYWGQGTQVTVSS | high polyreactivity |
| QVQLVESGGGLVQAGGSLRLSCAASGSIVSYYAMGWYRQAPGIERELVAAITTRGGRSYYADSVMGRFTISRDYAKNTVYLPMNSLKPEDTAVYYFNRYPGYIQGDYDYWGQGTQVTVSS | high polyreactivity |
| QVQLVESGGGLVQAGGSLRLSCAASGRTFGGYVMGWYRQAPGKERELVATITYSGGSTHYADSVKGRFTISRDNAKNTVYLQINSLKPEDTAVYYCARRRSYRYPSEYNYWGQGTQVTVSS | high polyreactivity |
| QVQLVESGGGLVHAGGSLRLSCAASGSIFDYYALGWYRQAPGKERDLVASINSSVTGTYYADTVKGRFTISRDNAKNSVYLQMNSLKPEDTAVYYCAVKVYGRSGGYEYWGQGTQVTVSS | low polyreactivity |
| QVQLVESGGGLVQAGGSLRLSCAASGRIFWDYGMGWYRQAPGKERELVAVITWGGGSTYYADSVKGRFTISRDNAKNTVYLQMNSLKPEDTAVYYCAKEYHYYYWGQGTQVTVSS | low polyreactivity |
| QVQLQESGVRMVQAGGSLRLSCAASGNIFLGDTMGWYRQAPGKEREFVAGIARGGNPYYADSEKGRLTISRNNANNTVYLEKISLKPEDSAVHYCSVQRSDASDYNYWGQGTQVTVIS | low polyreactivity |
| QVQLVESGGGLVQAGGSLSLSCAASGRTFKPYAMGWYRQAPGKERELVAVITSNGSSTYYADSVKGRFTISRDNAKNTVYLQMNSLKPEDTAVYYCATKLTYTLTSGAYAYDYWGQGTQVTVSS | low polyreactivity |
| QVQLVESGGGLVQAGGSLPLSCAASGLTLYGNAMGWYRQAPAKEREMVADISLSGGRTFYADSVKGRFTITRDNAKNTVYLQMNSLKPEDTAVYYCAAVCRTGWYYEYYHWGQGSQVTVSS | low polyreactivity |
| QVQLVESGGGLVQAGGSLRLSCAASGFTFDGYAMGSYRQAPGKERELVAAISDSGDSTYYADSVKGRFTISRDNAKNTVYLQMNSLKPEDTAVYYCAAPSVGYYDPTDFDYWGQGTQVTVSS | low polyreactivity |
| QVQLVESGGGLVQAGGSLRLSCAASGSIFYVNAMGWYRQAPGKERELVAAISYRGGSTYYADSVKGRFTISRDNAKNTVYLQMNSLKPEDTAVYYCAARGYYRPSQTTGRIKYDYWGQGTQVTVSS | high polyreactivity |
| QVQLVESGGGLVQAGGSLRLSCAASGSTFSGYAMGWYRQAPGKERELVAAITRSGGSTYYADSVKGRFTISRDNAKNTVYLQMNSLKPEDTAVYYCNVYFGYWVPTSTYYWSWDDYWGQGTQVTVSS | low polyreactivity |
| QVQLVESGGGLVQAGGSLRLSCAASGSIFDIYAMGWYRQAPGKERELVAAISWNGGDTTYADSVKGRFTISRDNAKNTVYLQMNSLKPEDTAVYYCAADLGYWVADYYWGQGTQVTVSS | high polyreactivity |
| QVQLVESGGGLDQAGGSLRLSCAPSGSIFKRNAMGWYRQAPGKARELVAAISKSSGSTYYADSVKGRFTISRDNAKNTVYLQMNSLKPEDYAVYYCAAKYYSYVDKYYYWGQGTQVTVSS | high polyreactivity |
